“And” between values parts separate entries of the source, which are not always exact repeats. Equal entries are not always repeated.
Key:
Assay in all cases: cryo-EM structure
Conditions in all cases: remark: other sources report otherwise
[1] = target: T1, human DNA polymerase θ helicase domain (residues 1-894) (human), O75417
[2] = target: T1, human DNA polymerase θ helicase domain …; remark: listed apart in the source
[3] = target: T1, human DNA polymerase θ helicase domain …; remark: listed apart in the source

B1: human DNA polymerase θ helicase domain (residues 1-894), O75417 1-894 (domain or fragment)
chain: MNLLRRSGKRRRSESGSDSFSGSGGDSSASPQFLSGSVLSPPPGLGRCLKAAAAGECKPTVPDYERDKLLLANWGLPKAVLEKYHSFGVKKMFEWQAECLLLGQVLEGKNLVYSAPTSAGKTLVAELLILKRVLEMRKKALFILPFVSVAKEKKYYLQSLFQEVGIKVDGYMGSTSPSRHFSSLDIAVCTIERANGLINRLIEENKMDLLGMVVVDELHMLGDSHRGYLLELLLTKICYITRKSASCQADLASSLSNAVQIVGMSATLPNLELVASWLNAELYHTDFRPVPLLESVKVGNSIYDSSMKLVREFEPMLQVKGDEDHVVSLCYETICDNHSVLLFCPSKKWCEKLADIIAREFYNLHHQAEGLVKPSECPPVILEQKELLEVMDQLRRLPSGLDSVLQKTVPWGVAFHHAGLTFEERDIIEGAFRQGLIRVLAATSTLSSGVNLPARRVIIRTPIFGGRPLDILTYKQMVGRAGRKGVDTVGESILICKNSEKSKGIALLQGSLKPVRSCLQRREGEEVTGSMIRAILEIIVGGVASTSQDMHTYAACTFLAASMKEGKQGIQRNQESVQLGAIEACVMWLLENEFIQSTEASDGTEGKVYHPTHLGSATLSSSLSPADTLDIFADLQRAMKGFVLENDLHILYLVTPMFEDWTTIDWYRFFCLWEKLPTSMKRVAELVGVEEGFLARCVKGKVVARTERQHRQMAIHKRFFTSLVLLDLISEVPLREINQKYGCNRGQIQSLQQSAAVYAGMITVFSNRLGWHNMELLLSQFQKRLTFGIQRELCDLVRVSLLNAQRARVLYASGFHTVADLARANIVEVEVILKNAVPFKSARKAVDEEEEAVEERRNMRTIWVTGRKGLTEREAAALIVEEARMILQQDLVEM
In the case of B1, the stoichiometry N [1] is reported as 2, the stoichiometry N [2] is reported as 2 and the stoichiometry N [3] is reported as 2 and 4.

Reference: paper PMC12009414
